Source: the supplement of paper PMC9170038

How the values were obtained:
[1] = system: K4 kissing-loop RNA reporter; test: apparent KD of K4 kissing-loop reporter; higher = weaker reporter binding; conditions: Eterna round: R107;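 further: bound reporter read as fluorescence of individual clusters on recovered sequencing chips by microscopy, with normalized cluster intensities fitted with a binding model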
Method: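 RNA-MaP round R107: designed RNA switches with theophylline, tryptophan, arginine or FMN aptamers are transcribed on-chip within common flanks. They are titrated with a labelled K4 kissing-loop RNA reporter in RNA-MaP buffer (100 mM Tris pH 7.5, 80 mM KCl, 4 mM MgCl2), without ligand or with the indicated ligand. Median apparent KD per design.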

MS2 coat protein = test: apparent KD of MS2 coat protein; designed switch direction (-1 OFF switch, 1 ON switch): -1; higher = weaker reporter binding
Summary of the method: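 Three titration conditions were used: no input, 200 uM small-molecule ligand, and an oligonucleotide input. In each, SNAP-549-labelled MS2 coat protein was raised from 0.7 or 1.5 nM, doubling, to 3 µM over designed RNA switches transcribed on Illumina chips by stalled E. coli RNA polymerase. Curve fits of normalised cluster fluorescence gave values whose per-design median over clusters is the apparent KD.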

[2] = input ligand: theophylline 20 uM
[3] = input ligand: tryptophan 2.4 mM
[4] = input ligand: microRNA oligo, concentration not stated
[5] = Eterna round: R95, input ligand: microRNA oligo, concentration not stated

AAAACUAUCAGAAGGAGCGUGGAAUAUUCAUCUAUAUUUAAUACGAGUGAUGUUCGUAAUUCACAGGUAGGUCGCUGAUCAAUAA [JR_ExcArginiB_Sub007]
apparent KD of K4 kissing-loop reporter ([1]; input ligand: FMN 200 uM): 0.214 µM | apparent KD of K4 kissing-loop reporter ([1]; input ligand: arginine 13.2 mM): 0.251 µM | apparent KD of K4 kissing-loop reporter ([1]; input ligand: none): 0.233 µM | apparent KD of K4 kissing-loop reporter [1, 2]: 0.273 µM | apparent KD of K4 kissing-loop reporter [1, 3]: 0.171 µM

AAAAGAAAGUCGGCCGCCACUCAACGCAGUGAUGUUGCAAGACAGAAGAGCAGUGAUGUUGCCCAGAGGACCGGGACACAAGGCC [Same State Typtophan B GF 3]
apparent KD of K4 kissing-loop reporter ([1]; input ligand: FMN 200 uM): 0.352 µM | apparent KD of K4 kissing-loop reporter ([1]; input ligand: arginine 13.2 mM): 0.384 µM | apparent KD of K4 kissing-loop reporter ([1]; input ligand: none): 0.444 µM | apparent KD of K4 kissing-loop reporter [1, 2]: 0.401 µM | apparent KD of K4 kissing-loop reporter [1, 3]: 0.309 µM

AAAAGCCAGCAAGGAUAUACGCGCGAAGCAUCCAUGGUGCCAGUUCCAGUGAUGUUGGACCACAUCGUAGAAGGUGCGCGGCUCA [theeternabot_sameState_KL_FMN_B_33]
apparent KD of K4 kissing-loop reporter ([1]; input ligand: FMN 200 uM): 0.44 µM | apparent KD of K4 kissing-loop reporter ([1]; input ligand: arginine 13.2 mM): 0.223 µM | apparent KD of K4 kissing-loop reporter ([1]; input ligand: none): 0.266 µM | apparent KD of K4 kissing-loop reporter [1, 2]: 0.224 µM | apparent KD of K4 kissing-loop reporter [1, 3]: 0.274 µM

AAAAUAAAUAGCAGUCAUGGAGUGAUGUUCCGAGGACCGGUACGGCCGCCACUCGACCAUCAUAAGAUGGAAUGGCGAGACUGCA [#SwitchBubble 22 #K4Early]
apparent KD of K4 kissing-loop reporter ([1]; input ligand: FMN 200 uM): 0.252 µM | apparent KD of K4 kissing-loop reporter ([1]; input ligand: arginine 13.2 mM): 0.288 µM | apparent KD of K4 kissing-loop reporter ([1]; input ligand: none): 0.249 µM | apparent KD of K4 kissing-loop reporter [1, 2]: 0.362 µM | apparent KD of K4 kissing-loop reporter [1, 3]: 0.52 µM

AAAAUAAAUCAGUGAUGUUGGUAUCCGGAUACCAGCGAUAAUCAUCGCCCUUGGCAGCCGCGGACGUACAAAAUAAGUACGUCCU [MatMod 15 - Jieux - Same State - Theophylline A]
apparent KD of K4 kissing-loop reporter ([1]; input ligand: FMN 200 uM): 0.282 µM | apparent KD of K4 kissing-loop reporter ([1]; input ligand: arginine 13.2 mM): 0.0892 µM | apparent KD of K4 kissing-loop reporter ([1]; input ligand: none): 0.218 µM | apparent KD of K4 kissing-loop reporter [1, 2]: 0.24 µM | apparent KD of K4 kissing-loop reporter [1, 3]: 0.131 µM

AAAAUAACCCAGUGAUGUUGGUAUGCAGAUACCAGCGACGAAAGUCGCCCUUGGCAGCUGUGGACGUACAAAAUAAGUACGUCCU
apparent KD of K4 kissing-loop reporter ([1]; input ligand: FMN 200 uM): 1.23 µM | apparent KD of K4 kissing-loop reporter ([1]; input ligand: arginine 13.2 mM): 0.834 µM | apparent KD of K4 kissing-loop reporter ([1]; input ligand: none): 1.42 µM | apparent KD of K4 kissing-loop reporter [1, 2]: 1.22 µM | apparent KD of K4 kissing-loop reporter [1, 3]: 1.52 µM

AAAAUAAUCCAGUGAUGUUGGUAUCCAGAUACCAGCCAGGAAACUGGCCCUUGGCAGCUGGCGACGUACAAAAUAAGUACGUCGU [#OpenEnded 11 #StaticStem #K4Early]
apparent KD of K4 kissing-loop reporter ([1]; input ligand: FMN 200 uM): 0.405 µM | apparent KD of K4 kissing-loop reporter ([1]; input ligand: arginine 13.2 mM): 0.184 µM | apparent KD of K4 kissing-loop reporter ([1]; input ligand: none): 0.47 µM | apparent KD of K4 kissing-loop reporter [1, 2]: 0.664 µM | apparent KD of K4 kissing-loop reporter [1, 3]: 0.374 µM

AAAAUAAUCCAGUGAUGUUGGUGUCCAGAUACCAGCGACGAAAGUCGCCCUUGGCAGCUGUGGACGUACAAAAUAAGUACGUCCU
apparent KD of K4 kissing-loop reporter ([1]; input ligand: FMN 200 uM): 0.476 µM | apparent KD of K4 kissing-loop reporter ([1]; input ligand: arginine 13.2 mM): 0.331 µM | apparent KD of K4 kissing-loop reporter ([1]; input ligand: none): 0.559 µM | apparent KD of K4 kissing-loop reporter [1, 2]: 0.251 µM | apparent KD of K4 kissing-loop reporter [1, 3]: 0.431 µM

AAAAUAGAUCAGUGAUGUUGGUGUCUGGAUACCAGCGAUAAUAGUCGCCCUUGGCAGCCAUGGACGUACAAAAUAAGUACGUCCU [MatMod 20 - Jieux - Same State - Theophylline A]
apparent KD of K4 kissing-loop reporter ([1]; input ligand: FMN 200 uM): 0.487 µM | apparent KD of K4 kissing-loop reporter ([1]; input ligand: arginine 13.2 mM): 0.239 µM | apparent KD of K4 kissing-loop reporter ([1]; input ligand: none): 0.369 µM | apparent KD of K4 kissing-loop reporter [1, 2]: 0.285 µM | apparent KD of K4 kissing-loop reporter [1, 3]: 0.347 µM

AAACAUCACUGGGAGUGAUGUUCUCAGUGACGAGGACCGGUACGGCCGCCACUCGCGAGAGAUAUAAAUAAGUAAUGACAUCAUU [Excl Tryptophan A V1]
apparent KD of K4 kissing-loop reporter ([1]; input ligand: FMN 200 uM): 0.359 µM | apparent KD of K4 kissing-loop reporter ([1]; input ligand: arginine 13.2 mM): 0.334 µM | apparent KD of K4 kissing-loop reporter ([1]; input ligand: none): 0.36 µM | apparent KD of K4 kissing-loop reporter [1, 2]: 0.357 µM | apparent KD of K4 kissing-loop reporter [1, 3]: 0.423 µM

AAAGUUGCAAGUGAUACCAGACGAGUGAAGGGAAGUAAUUAAUUAGGAGUGAUGUUCCGCGUCCCUUGGCAGCACUUUGUAAUUU [Exclusion Theophylline B GF 25]
apparent KD of K4 kissing-loop reporter ([1]; input ligand: FMN 200 uM): 0.155 µM | apparent KD of K4 kissing-loop reporter ([1]; input ligand: arginine 13.2 mM): 0.165 µM | apparent KD of K4 kissing-loop reporter ([1]; input ligand: none): 0.152 µM | apparent KD of K4 kissing-loop reporter [1, 2]: 0.184 µM | apparent KD of K4 kissing-loop reporter [1, 3]: 0.115 µM

AAAUAAAUCGGAGGAUAUCCUUCCCACGUCGAAGUACCGUGCUUGAUGGAGUGAUGUUCGAUCAGAGGAGAAGGCCGAUAAAUAA [Same State FMN B GF20]
apparent KD of K4 kissing-loop reporter ([1]; input ligand: FMN 200 uM): 1.04 µM | apparent KD of K4 kissing-loop reporter ([1]; input ligand: arginine 13.2 mM): 0.732 µM | apparent KD of K4 kissing-loop reporter ([1]; input ligand: none): 1.04 µM | apparent KD of K4 kissing-loop reporter [1, 2]: 0.924 µM | apparent KD of K4 kissing-loop reporter [1, 3]: 0.777 µM

UUUUUCUGGCAAGGAUAUCCUGUGCGGUUCCGGCUCGUGUCUGUUACAUGAGGAUCACCCAUGUGGGAGAAGGUGCCUGUGGUU [Design 88] (Eterna round: R96, puzzle: Exclusion NG 2)
apparent KD of MS2 coat protein (MS2 coat protein; input ligand: FMN 200 uM): 0.0942 µM | apparent KD of MS2 coat protein (MS2 coat protein; [4]): 0.0269 µM | apparent KD of MS2 coat protein (MS2 coat protein; input ligand: none): 0.0353 µM

UUUUUGUAUGAAGGAUAUACUUAACAUGAGGAUCACCCAUGUGGUGUUGUGAGUGAGUGAGUUUAGUAGAAGGUCAAUUAUUUU [JMF's solution 24] (Eterna round: R96, puzzle: Exclusion NG 2)
apparent KD of MS2 coat protein (MS2 coat protein; input ligand: FMN 200 uM): 0.843 µM | apparent KD of MS2 coat protein (MS2 coat protein; [4]): 0.346 µM | apparent KD of MS2 coat protein (MS2 coat protein; input ligand: none): 0.361 µM

UUUUUUUUGUUUUUUGUUUACAUGAGGAUCACCCAUGUGACGAGUUUAUGGGUGAACAAGCUUUUUGCUCGUCUUAU [Sensor v3 - Turn-off variant 1 - 5] (puzzle: Sensor v3, turn-off variant 1)
apparent KD of MS2 coat protein (MS2 coat protein; Eterna round: R95, input ligand: FMN 200 uM): 0.0524 µM | apparent KD of MS2 coat protein (MS2 coat protein; [5]): 0.0178 µM | apparent KD of MS2 coat protein (MS2 coat protein; Eterna round: R95, input ligand: none): 0.14 µM

UUUUUUUUUGUGAGGAUAUACUUUUUUUUUUUUUUGUAGAAGGCACAUGAGGAUCACCCAUGUUUUUUUUUCUC [JR_BME4_Sub029] (puzzle: Brourd's mod of Exclusion 4)
apparent KD of MS2 coat protein (MS2 coat protein; [5]): 0.0132 µM
